Patent US20170087188A1, “WNT INDUCED MOTILITY AND ENHANCED ENGRAFTMENT OF CELLS” (OTTAWA HOSPITAL RESEARCH INSTITUTE, priority 2014, published 2017)

Key:
[1] = target: Fzd7 (endogenous, mouse myogenic cells) (mouse) (UniProt Q61090); experiment: cell-based or functional assay
Fzd7-YFP (CMV-Fzd7-EYFP) = experiment: cell-based or functional assay

- abundance of triangular polarized C2C12 cells [1]: 111 % increase
- directional persistence of satellite cells on single myofibers (time lapse imaging) [1]: 36 % higher
- mean velocity of satellite cells on single myofibers (time lapse imaging) [1]: 31 % increase
- migration of C2C12 cells in scratch assay [1]: 443 % increase
- migration of satellite cell derived mouse primary myoblasts in scratch assay [1]: 136 % increase
- cell polarization of Fzd7-YFP expressing C2C12 cells (Fzd7-YFP (CMV-Fzd7-EYFP)): 167 % increase
Substance: Wnt7a (R&D Systems) (ligand)
